Each block holds one binder with its values, some of them ahead of it.
Key:
[1] = molecular target: T1, human CEACAM6 (human, UniProt P40199 35-320); assay: flow cytometry on transient HEK293T transfectants
T1 construct: whole, on cells
T1 sequence (looked up): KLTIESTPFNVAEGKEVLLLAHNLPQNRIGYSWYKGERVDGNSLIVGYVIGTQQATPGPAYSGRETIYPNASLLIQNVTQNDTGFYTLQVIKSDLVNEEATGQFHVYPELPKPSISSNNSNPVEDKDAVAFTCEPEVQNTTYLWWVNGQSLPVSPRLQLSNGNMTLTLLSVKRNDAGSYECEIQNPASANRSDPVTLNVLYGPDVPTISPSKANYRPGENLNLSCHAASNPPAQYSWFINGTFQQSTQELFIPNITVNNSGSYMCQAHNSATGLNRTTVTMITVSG
Method: (§1) Briefly, cells were harvested, counted, checked for viability and re-suspended at 1×10⁶ cells/ml in FACS buffer (100 μl PBS 0.1% BSA). 100 μl of the cell suspension (containing 0.1×10⁶ cells) were plated iton round-bottom 96-well plates and washed twice with 150 μl of cold PBS. Cells were stained for 30 min at 4° C., using a 1:5000 pre-diluted suspension of the fixable viability dye eFluor660 (eBioscience, #65-0864-14) in PBS. […] Cells were washed twice with cold PBS 0.1% BSA, re-incubated for further 30 min at 4° C. with the FITC-conjugated AffiniPure F(ab′)2 Fragment goat anti-human IgG Fcg Fragment Specific secondary antibody (Jackson Immuno Research Lab FITC #109-096-098, 1:50 pre-diluted in PBS 0.1% BSA), washed twice with cold PBS 0.1% BSA and fixed using 150 μl PBS 0.1% BSA, containing 2% PFA and incubation at 4° C. for 20 min. Thereafter, cells were washed once for 8 min at 400×g, 4° C. and finally re-suspended in 150 μl FACS buffer for the FACS measurement. Fluorescence was measured using BD FACS CantoII. Binding curves were obtained using GraphPadPrism6 (FIG. 20A).

[2] = molecular target: T2, human CEACAM1 (human, UniProt P13688 35-526); assay: flow cytometry on transient HEK293T transfectants
T2 construct: whole, on cells
T2 sequence (looked up): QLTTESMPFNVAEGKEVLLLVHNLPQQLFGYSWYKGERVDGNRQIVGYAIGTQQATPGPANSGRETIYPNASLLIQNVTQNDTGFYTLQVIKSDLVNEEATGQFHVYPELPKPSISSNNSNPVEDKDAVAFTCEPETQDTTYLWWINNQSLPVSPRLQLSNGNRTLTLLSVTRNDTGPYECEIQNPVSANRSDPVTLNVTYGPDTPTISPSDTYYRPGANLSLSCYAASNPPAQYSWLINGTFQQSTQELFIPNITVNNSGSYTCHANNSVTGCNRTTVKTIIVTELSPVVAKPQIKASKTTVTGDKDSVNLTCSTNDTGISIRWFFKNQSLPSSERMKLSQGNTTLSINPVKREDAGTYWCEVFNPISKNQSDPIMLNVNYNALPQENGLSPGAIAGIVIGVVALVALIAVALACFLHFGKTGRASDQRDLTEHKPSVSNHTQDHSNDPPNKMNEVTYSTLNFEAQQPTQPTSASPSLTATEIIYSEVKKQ
Method: as §1

[3] = molecular target: T3, human Carcinoembryonic antigen (CEA), also known as Carcinoembryonic antigen-related cell adhesion molecule 5 (human, UniProt P06731 35-685); assay: flow cytometry on LS-174T cells (~40 700 CEA binding sites)
T3 construct: whole, on cells; Expressed on the tumor cell lines MKN45, LS174T, HT29 and others, and on transiently transfected HEK293T cells; also called human CEA; CEACAM5
T3 sequence (looked up): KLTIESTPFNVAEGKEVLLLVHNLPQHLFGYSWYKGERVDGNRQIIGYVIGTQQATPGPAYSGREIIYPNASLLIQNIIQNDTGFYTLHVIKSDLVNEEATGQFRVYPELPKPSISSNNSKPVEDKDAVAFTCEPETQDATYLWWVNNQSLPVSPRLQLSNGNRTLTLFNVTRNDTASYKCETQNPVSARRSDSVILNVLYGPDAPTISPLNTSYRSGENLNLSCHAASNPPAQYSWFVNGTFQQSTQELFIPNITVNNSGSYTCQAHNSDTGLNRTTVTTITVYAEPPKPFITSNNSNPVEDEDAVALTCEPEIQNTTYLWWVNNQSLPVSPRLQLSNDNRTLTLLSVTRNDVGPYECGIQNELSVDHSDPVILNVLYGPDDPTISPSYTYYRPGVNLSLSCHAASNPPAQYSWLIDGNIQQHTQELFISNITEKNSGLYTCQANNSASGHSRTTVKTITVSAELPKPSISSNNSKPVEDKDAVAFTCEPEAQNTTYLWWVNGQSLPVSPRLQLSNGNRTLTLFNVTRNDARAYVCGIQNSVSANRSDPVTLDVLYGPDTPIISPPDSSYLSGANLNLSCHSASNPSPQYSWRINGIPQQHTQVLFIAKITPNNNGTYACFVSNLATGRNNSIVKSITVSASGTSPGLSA
Method: (§2) The binding of the TCB molecules used in Example 5A and B was tested on different CEA-expressing tumor and CD3-expressing Jurkat (DSMZ ACC 282) cells.
(§3) Briefly, cells were harvested, counted, checked for viability and re-suspended at 2×10⁶ cells/ml in FACS buffer (100 μl PBS 0.1% BSA). 100 μl of cell suspension (containing 0.2×10⁶ cells) were incubated in round-bottom 96-well plate for 30 min at 4° C. with increasing concentrations of the CEA IgG (31 pM-500 nM), washed twice with cold PBS 0.1% BSA, re-incubated for further 30 min at 4° C. with the FITC-conjugated AffiniPure F(ab′)2 Fragment goat anti-human IgG Fcg Fragment Specific secondary antibody (Jackson Immuno Research Lab FITC #109-096-008, 1:40 pre-diluted in PBS 0.1% BSA), washed twice with cold PBS 0.1% BSA and fixed using 150 μl PBS 0.1% BSA, containing 2% PFA and incubation at 4° C. for 20 min. Thereafter, cells were washed once for 8 min at 400×g, 4° C. and finally re-suspended in 150 μl FACS buffer for the FACS measurement. Fluorescence was measured using Miltenyi MACSQuant.

[4] = molecular target: T3, human Carcinoembryonic antigen (CEA), …; assay: flow cytometry on MKN45 cells (~513 300 CEA binding sites)
Method: as §2, §3

[5] = molecular target: T3, human Carcinoembryonic antigen (CEA), …; assay: cell-based or functional assay
[6] = molecular target: T3, human Carcinoembryonic antigen (CEA), …; assay: flow cytometry on CEA-expressing MKN45 cells, PE anti-human Fc secondary
Method: Briefly, cells were harvested, counted, checked for viability and re-suspended at 2×10⁶ cells/ml in FACS buffer (100 μl PBS 0.1% BSA). […] Binding curves and EC50 values were obtained and calculated using GraphPadPrism5 (FIG. 2, binding to MKN45 cells).

binding result [1]: no binding (tested: 30.5 pM-500 nM)
binding result [2]: no binding (tested: 30.5 pM-500 nM)
B1: CEA CD3 TCB molecule B, "2+1 IgG CrossFab, inverted" with charge modifications, humanized CEA binder (humanized variant 1) (bispecific antibody)
heavy 1: not shown
heavy 2: QVQLVQSGAEVKKPGSSVKVSCKASGFNIKDTYMHWVRQAPGQGLEWMGRIDPANGNSKYVPKFQGRVTITADTSTSTAYMELSSLRSEDTAVYYCAPFGYYVSDYAMAYWGQGTLVTVSSASTKGPSVFPLAPSSKSTSGGTAALGCLVEDYFPEPVTVSWNSGALTSGVHTFPAVLQSSGLYSLSSVVTVPSSSLGTQTYICNVNHKPSNTKVDEKVEPKSCDKTHTCPPCPAPEAAGGPSVFLFPPKPKDTLMISRTPEVTCVVVDVSHEDPEVKFNWYVDGVEVHNAKTKPREEQYNSTYRVVSVLTVLHQDWLNGKEYKCKVSNKALGAPIEKTISKAKGQPREPQVCTLPPSRDELTKNQVSLSCAVKGFYPSDIAVEWESNGQPENNYKTTPPVLDSDGSFFLVSKLTVDKSRWQQGNVFSCSVMHEALHNHYTQKSLSLSP
light 1: EIVLTQSPATLSLSPGERATLSCRAGESVDIFGVGFLHWYQQKPGQAPRLLIYRASNRATGIPARFSGSGSGTDFTLTISSLEPEDFAVYYCQQTNEDPYTFGQGTKLEIKRTVAAPSVFIFPPSDRKLKSGTASVVCLLNNFYPREAKVQWKVDNALQSGNSQESVTEQDSKDSTYSLSSTLTLSKADYEKHKVYACEVTHQGLSSPVTKSFNRGEC
light 2: EVQLLESGGGLVQPGGSLRLSCAASGFTFSTYAMNWVRQAPGKGLEWVSRIRSKYNNYATYYADSVKGRFTISRDDSKNTLYLQMNSLRAEDTAVYYCVRHGNFGNSYVSWFAYWGQGTLVTVSSASVAAPSVFIFPPSDEQLKSGTASVVCLLNNFYPREAKVQWKVDNALQSGNSQESVTEQDSKDSTYSLSSTLTLSKADYEKHKVYACEVTHQGLSSPVTKSFNRGEC
notes: The two copies of the CEA light chain follow from the 2+1 format and the 1:2:1:1 vector ratio; also called CEA CD3 TCB based on humanized variant 1

EC50 [3]: 11.7 nM
EC50 [4]: 27.9 nM
EC50 of T-cell mediated lysis of Kato III cells (LDH release, human PBMC, E:T 10:1), 48 h [5]: 8.23 nM
B2: CEA CD3 TCB molecule X (TCB of similar structure as molecule B, based on a different humanized CEA binder not based on T84.66) (bispecific antibody)
chain 1: not shown
chain 2: QVQLVQSGAEVKKPGASVKVSCKASGYTFTEFGMNWVRQAPGQGLEWMGWINTKTGEATYVEEFKGRVTFTTDTSTSTAYMELRSLRSDDTAVYYCARWDFAYYVEAMDYWGQGTTVTVSSASTKGPSVFPLAPSSKSTSGGTAALGCLVKDYFPEPVTVSWNSGALTSGVHTFPAVLQSSGLYSLSSVVTVPSSSLGTQTYICNVNHKPSNTKVDKKVEPKSCDKTHTCPPCPAPEAAGGPSVFLFPPKPKDTLMISRTPEVTCVVVDVSHEDPEVKFNWYVDGVEVHNAKTKPREEQYNSTYRVVSVLTVLHQDWLNGKEYKCKVSNKALGAPIEKTISKAKGQPREPQVCTLPPSRDELTKNQVSLSCAVKGFYPSDIAVEWESNGQPENNYKTTPPVLDSDGSFFLVSKLTVDKSRWQQGNVFSCSVMHEALHNHYTQKSLSLSPGK
chain 3: QAVVTQEPSLTVSPGGTVTLTCGSSTGAVTTSNYANWVQEKPGQAFRGLIGGTNKRAPGTPARFSGSLLGGKAALTLSGAQPEDEAEYYCALWYSNLWVFGGGTKLTVLSSASTKGPSVFPLAPSSKSTSGGTAALGCLVKDYFPEPVTVSWNSGALTSGVHTFPAVLQSSGLYSLSSVVTVPSSSLGTQTYICNVNHKPSNTKVDKKVEPKSC
chain 4: DIQMTQSPSSLSASVGDRVTITCKASAAVGTYVAWYQQKPGKAPKLLIYSASYRKRGVPSRFSGSGSGTDFTLTISSLQPEDFATYYCHQYYTYPLFTFGQGTKLEIKRTVAAPSVFIFPPSDEQLKSGTASVVCLLNNFYPREAKVQWKVDNALQSGNSQESVTEQDSKDSTYSLSSTLTLSKADYEKHKVYACEVTHQGLSSPVTKSFNRGEC

EC50 [6]: 1.5 µg/mL
B3: Humanized variant 1 of T84.66 IgG (antibody, V domains shown)
VH: QVQLVQSGAEVKKPGSSVKVSCKASGFNIKDTYMHWVRQAPGQGLEWMGRIDPANGNSKYVPKFQGRVTITADTSTSTAYMELSSLRSEDTAVYYCAPFGYYVSDYAMAYWGQGTLVTVSS
VL: EIVLTQSPATLSLSPGERATLSCRAGESVDIFGVGFLHWYQQKPGQAPRLLIYRASNRATGIPARFSGSGSGTDFTLTISSLEPEDFAVYYCQQTNEDPYTFGQGTKLEIK
notes: Tested as IgG and detected with an anti-human IgG Fc secondary antibody

From patent US20200347147A1 (Hoffmann-La Roche, published 2020)
